The values that follow come from PMC4140821, “Structural and Biochemical Characterization of the Cop9 Signalosome CSN5/CSN6 Heterodimer” (PLoS ONE, 2014).

Data set [1] deals with the molecule itself. The data set is described as follows: crystal structure; CSN6^ΔC alone; crystals at 18°C in 0.2 M tri-sodium citrate, 0.1 M Bis-Tris propane pH 6.5, 20% PEG3350; dimer generated by the crystallographic 2-fold.
Data set [2] concerns the target T1, CSN5^ΔC,WT (human CSN5 1–257 fragment) (human, UniProt Q92905 1-257).
T1 construct: COP9 signalosome subunit 5 (CSN5, Jab1), human, residues 1-257 (MPN domain with N- and C-terminal appendices); also called CSN5 catalytic domain; Jab1 fragment
Description: ITC; CSN6^ΔC (WT and variants; 1 mM, 30 injections of 1.8 µL) injected into CSN5^ΔC (WT and variants; 100 µM) in the cell; 20°C; 20 mM Na MES pH 6.5, 75 mM NaCl; one site model; apparent. The conditions noted are these: both partners purified.

Another data set deals with T2, CSN5^ΔC,R106T (human, UniProt Q92905 1-257, R106T).
T2 construct: COP9 signalosome subunit 5 (CSN5, Jab1), human, residues 1-257, R106T in the Ins-1 region; also called conformationally-relaxed CSN5^ΔC variant; R106T variant
The description is as above. Particulars: both partners purified.

Numbering of substitutions follows the chain as printed. Numbers in names are those of the source.

T1 sequence (Q92905 1-257, stated change not applied): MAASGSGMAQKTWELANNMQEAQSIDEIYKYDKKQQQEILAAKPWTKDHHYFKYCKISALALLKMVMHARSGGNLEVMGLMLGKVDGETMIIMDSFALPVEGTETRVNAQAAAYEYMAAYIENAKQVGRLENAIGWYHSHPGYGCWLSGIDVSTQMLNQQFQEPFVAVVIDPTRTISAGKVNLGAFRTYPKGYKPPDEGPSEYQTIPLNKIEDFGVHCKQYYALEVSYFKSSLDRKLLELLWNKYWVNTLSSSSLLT
T2 sequence (Q92905 1-257 R106T): as the sequence (Q92905 1-257, stated change not applied) above, with R106T counted along it

B1: CSN6^ΔC (human CSN6 31–211 fragment) (domain or fragment, UniProt Q7L5N1 31-211, looked up)
chain: MACGVTGSVSVALHPLVILNISDHWIRMRSQEGRPVQVIGALIGKQEGRNIEVMNSFELLSHTVEEKIIIDKEYYYTKEEQFKQVFKELEFLGWYTTGGPPDPSDIHVHKQVCEIIESPLFLKLNPMTKHTDLPVSVFESVIDIINGEATMLFAELTYTLATEEAERIGVDHVARMTATGS
notes: COP9 signalosome subunit 6 (CSN6), human, residues 31-211 (MPN domain with a C-terminal extension); Cloned in pGEX-6P1; Uniformly 15N-labelled for NMR; also called CSN6 N-terminal domain; CSN6 MPN domain; source: LB or 15NH4Cl M9 medium for NMR; not shown: GST, N-terminal, cleaved
Turning to B1, the binding result (in data set [1]; in the data set with CSN5^ΔC,R106T) was “binds” in each case. Also, the Kd in data set [2] was 6 ± 1 µM.

B2: CSN6^ΔC,V115E (domain or fragment, human, UniProt Q7L5N1 31-211, looked up)
chain: B1 chain with V85E
notes: COP9 signalosome subunit 6 (CSN6), human, residues 31-211, V115E; everywhere else V115E; also called V115E variant; not shown: GST, N-terminal, cleaved
With B2, in data set [2], the “fold reduction in binding against WT CSN6^ΔC” value was 5 fold.
